Results on eight molecules are retold here after patent US11026994B2, “Syndecan-2 compositions and methods of use” (ORBSEN THERAPEUTICS LIMITED, priority 2013, dated 2021).

Entries after “also recorded” stand apart in the source; their conditions may differ.

Experiment [1] deals with SDC2 RNA. The experiment is described as follows: SDC2 RNA levels in treated cell populations. Type of experiment: cell-based, human. From the text: HDAC inhibitors and sirtuins may be used to increase SDC2 expression. […] The sirtuin family of HDACs, including SIRT1 and SIRT2, may be used to increase SDC2 expression. The sirtuins are NAD-dependant HDACs and are reported to deacetylate p53 protein—acetylation of p53 is reported to be important for its transactivation/transcription activity. Thus sirtuins are key regulators of p53 activity. Examples of sirtuins include nicotinamide, sirtinol, EX-527 and tenovins. […] DMSO is also reported to contain HDAC inhibitor (p53 activation) capacity.
DMOG is a hypoxia mimetic, and other hypoxia mimetics for use in the invention include cobalt chloride, EDHB and desferrioxamine. Hypoxia is reported to stimulate p53 (via ATR/CHK1 kinases).
We tested various HDAC inhibitors for their effect on SDC2 expression on human cell populations initially isolated on the basis of SDC2 expression and maintained subsequently in culture.

In experiment [2] the test system is SDC2 secretion. As to the kind of experiment: SDC2 secretion after environmental toxin BPDE. The class given is cell-based, human. The note with it: 600 nM BPDE.
The subject of experiment [3] is SDC2 shedding from human MSCs. The experiment is described as follows: SDC2 ELISA of supernatants of Nutlin-3a treated MSCs. The class given is cell-based. The note with it: 24 h. On the procedure: MSCs were plated at a density of 10^5 cells per well of a 6-well plate (Nunc) in complete media (α-MEM, 10% FBS) and left to adhere overnight. Medium was then exchanged for serum-free containing Nutlin-3a or DMSO as a carrier control. 24 h post-induction the cells were harvested for both RNA and protein and the serum-free supernatant was collected for ELISA.
The levels of human Syndecan-2 was measured in supernatants collected from hMSCs using commercially available ELISA assays (CUSABIO). The assay was conducted as per the manufacturer's instructions. Calibration curves were prepared using purified standards for SDC2. Curve fitting was accomplished by sigmoidal logisitic regression following manufacturer's instructions.
24 h post-treatment with Nutlin-3a (5, 10, 20 μM) or DMSO carrier control (5, 20 μM), the supernatant from MSCs was collected, centrifuged for 5 min at 1500 rpm and subjected to SDC2 ELISA including unconditioned serum-free media as an additional control.
MSCs treated with either Nutlin-3a or DMSO as a carrier control for 24 h in serum-free media. The serum-free supernatants were collected and a commercially available SDC2 ELISA kit was used to detect shed SDC2 present in the supernatants.
For orientation: An ELISA detects its analyte on a solid surface through an enzyme-linked reagent.

The test system of experiment [4] is HCT116. The experiment is described as follows: Cancer cell migration toward conditioned medium (xCELLigence RTCA). Type of experiment: cell-based. Set-up: key: ↑: increased migration compared to conditioned media; ↓: decreased cell migration compared to conditioned media; —: no changed compared to conditioned media. An excerpt:
(§1) Cell migration is a critical parameter for in vitro cell culture-related studies. It is necessary to monitor the dynamic changes of cell populations under different conditions. Using a real time cell analyser (RTCA, xCELLigence, Roche) which is an impedance-based device we can monitor the following properties in real time: proliferation, migration and cell adherence. Such properties are involved in cancer evolution. We used this method to establish the migratory capacity of cancer cells toward conditioned medium. The model is accepted as predictive of efficacy in cancer therapy—reduced migration in the model indicates anti-cancer properties.
(§2) In our investigations, cell migration was determined using 16-well CIM plates read in real-time using the aforementioned xCELLigence device. For these studies a variety of cancer cell lines were used from breast cancer (MDA-MB-231, MDA-MB-486, MCF-10A), prostate cancer (DU145), pancreas cancer (SU-86-86) and colon carcinoma (HCT116).

The test system of experiment [5] is SU-86-86. The experiment is described as above. Type of experiment: cell-based.
Excerpt: as §1, §2

For experiment [6], the system named is Du145. Described as above. The note with it: Recombinant SDC2 500 ng/ml. The class given is cell-based.
Excerpt: as §1, §2

Experiment [7] has as its system MDA-MB-231. The experiment is described as above. As to conditions: one symbol per experiment. Type of experiment: cell-based.
Excerpt: as §1, §2

For experiment [8], the system named is NFκB activation by TNFα and IL1β. As to the kind of experiment: κB luciferase assay in A549 cells pretreated with SDC2 recombinant protein. The class given is cell-based. The note with it: 10 ng/mL TNF-α/IL-1β, 24 hours. On the procedure: A549 cells stably transduced with κB luciferase plasmid were pretreated for 1 hour with SDC2 recombinant protein. 10 ng/mL TNF-α/IL-1β was added to the media and luciferase assay performed after 24 hours. The results are shown in FIG. 5. ***=p<0.0001 with respect to 0 ng/mL S2
A549 cells stably transduced with KB luciferase plasmid and treated for 24 hours with recombinant SDC2. In the top panel: cytokines were added to the media for 24 hours and luciferase assay performed. In the bottom panel: media was replaced before addition of cytokines for 24 hours. *=p<0.01 with respect to 0 ng/mL S2; ***=p<0.0001 with respect to 0 ng/mL S2; +++=p<0.0001 with respect to 100 ng/mL S2.

The mark [9] stands for this setting: other series of tests, time not given.
[10] abbreviates: at 24 hrs, human cell populations isolated on SDC2 expression.

Turning to `C[S+](C)[O-]` [DMSO], in experiment [1] (setting [9]), the “SDC2 RNA levels” value is given as “increased SDC2 RNA levels”.
Consider `OC1c2cc3ccc4cccc5ccc(c2C2OC2C1O)c3c45` (stereo not drawn) [BPDE, benzo[a]pyrene-7,8-diol-9,10-epoxide], for which the “increase of SDC2 secretion” value in experiment [2] is “approximately 3 fold”.
With `O=C1CCc2c(ccc3ccccc23)O1` [Splitomicin], in experiment [1] (setting [10]), the “SDC2 RNA levels” value is on record as “increased SDC2 RNA levels; also recorded: greatest stimulation”.
For the molecule 2-pyrrolidinone-n-butyric acid [PBA], in experiment [1] (setting [10]), the “SDC2 RNA levels” value is “increased SDC2 RNA levels”.
Turning to `COc1ccc(C2=N[C@@H](c3ccc(Cl)cc3)[C@@H](c3ccc(Cl)cc3)N2C(=O)N2CCNC(=O)C2)c(OC(C)C)c1` [Nutlin-3a], the SDC2 shedding entry in experiment [3] (5, 10, 20 μM, compared to DMSO control) is listed as “dose-dependent increase in SDC2 shedding”. Moreover, the “amount of shed SDC2” value in experiment [3] (Nutlin-3a 20 μM, serum-free, average of three MSC donors) is around 1000 pg/mL.
With `CCCC(CCC)C(=O)O` [Valproic Acid], the “SDC2 RNA levels” value in experiment [1] (setting [10]) was “increased SDC2 RNA levels”.
In the case of `COC(=O)CNC(=O)C(=O)OC` [DMOG, Dimethyloxaloylglycine], the “SDC2 RNA levels” value in experiment [1] (setting [9]) is on record as “very robust increase in SDC2 RNA”.

B1: Recombinant SDC2: recombinant Syndecan-2 (SDC2) protein (protein, UniProt P34741 19-201, looked up)
Syndecan-2: ESRAELTSDKDMYLDNSSIEEASGVYPIDDDDYASASGSGADEDVESPELTTSRPLPKILLTSAAPKVETTTLNIQNKIPAQTKSPEETDKEKVHLSDSERKMDPAEEDTNVYTEKHSDSLFKRTEVLAAVIAGGVIGFLFAIFLILLLVYRMRKKDEGSYDLGERKPSSAAYQKAPTKEFYA
Take B1: the “Cancer Cell Migration” value is given as “↓” in experiment [4] (Recombinant SDC2 100 ng/ml); “↓” in experiment [4] (Recombinant SDC2 500 ng/ml); “↓” in experiment [4] (Recombinant SDC2 1000 ng/ml); “↓↑” in experiment [5] (Recombinant SDC2 100 ng/ml); “↓↓” in experiment [5] (Recombinant SDC2 500 ng/ml); “↓↑” in experiment [5] (Recombinant SDC2 1000 ng/ml). The “Cancer Cell Migration” value in experiment [6] is on record as “↓—”; in experiment [7] (Recombinant SDC2 100 ng/ml), “↓↓”; in experiment [7] (Recombinant SDC2 500 ng/ml) it was “↓↓↓↓↓—”. Further, in experiment [8], the “NFκB activation by TNFα and IL1β” value is “suppressed NFκB activation”.
